According to patent US20230037552A1 (published 2023):

What was measured:
[1] = target: T1, ASTN1 peptide on HLA-A*02:01 (human); experiment: cytokine release
T1 peptide: KLYGLDWAEL

[2] = target: T2, MAGEA1 peptide on HLA-A*02:16 (human); experiment: cytokine release
T2 peptide: KVLEYVIKV

[3] = target: T3, MAGEA1 KVL peptide, threonine substitution at position 1 (K) peptide on HLA-A*02:01 (human); experiment: cytokine release
T3 peptide: TVLEYVIKV

[4] = target: T4, MAGEA1 KVL peptide, threonine substitution at position 3 (L) peptide on HLA-A*02:01 (human); experiment: cytokine release
T4 peptide: KVTEYVIKV

[5] = target: T5, MAGEA1 peptide on HLA-A*02:17 (human); experiment: cytokine release
T5 peptide: KVLEYVIKV

[6] = target: T6, MAGEA1 peptide on HLA-A*02:04 (human); experiment: cytokine release
T6 peptide: KVLEYVIKV

[7] = target: T7, MAGEA1 KVL peptide, threonine substitution at position 5 (Y) peptide on HLA-A*02:01 (human); experiment: cytokine release
T7 peptide: KVLETVIKV

[8] = target: T8, MAGEA1 peptide on HLA-A*02:01 (human); experiment: multimer staining
T8 peptide: KVLEYVIKV

binding result [1]: no recognition
binding result [2]: recognises
binding result [3]: no recognition
binding result [4]: no recognition
binding result [5]: recognises
binding result [6]: recognises
binding result [7]: no recognition
binding result [8]: recognises
B1: TCR T15.8-4.3-83 (TCR, V domains shown)
Valpha: AQKVTQAQTEISVVEKEDVTLDCVYETRDTTYYLFWYKQPPSGELVFLIRRNSFDEQNEISGRYSWNFQKSTSSFNFTITASQVVDSAVYFCALSEVASGGSYIPTFGRGTSLIVHP
Vbeta: SQTIHQWPATLVQPVGSPLSLECTVEGTSNPNLYWYRQAAGRGLQLLFYSVGIGQISSEVPQNLSASRPQDRQFILSSKKLLLSDSGFYLCAWSGSGGNQPQHFGDGTRLSIL
